Measurements taken from paper PMC9352680, “A comprehensive thermodynamic model for RNA binding by the Saccharomyces cerevisiae Pumilio protein PUF4”.
Changes are numbered by the printed parent chain. Names may count otherwise.

T1: PUF4 RNA-binding domain (Saccharomyces cerevisiae, UniProt P25339 537-888)
T1 sequence: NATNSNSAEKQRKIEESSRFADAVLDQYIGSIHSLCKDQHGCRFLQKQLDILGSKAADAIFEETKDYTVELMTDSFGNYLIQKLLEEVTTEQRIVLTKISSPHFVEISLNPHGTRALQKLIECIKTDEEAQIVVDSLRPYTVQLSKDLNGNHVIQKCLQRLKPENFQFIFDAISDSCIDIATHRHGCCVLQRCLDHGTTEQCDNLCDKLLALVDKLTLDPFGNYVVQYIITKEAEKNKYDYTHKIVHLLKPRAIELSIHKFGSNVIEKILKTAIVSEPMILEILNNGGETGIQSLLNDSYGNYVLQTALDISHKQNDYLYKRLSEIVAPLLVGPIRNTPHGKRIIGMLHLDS

B1: Id_ii_S2_P4E.3_K4.2_C4.2_[C-2G]_[T-1C]_H4.2_A4.1_F4.1_T4.2_[G10A]_[T11C] (ssRNA)
RNA: UUUGAUUAAUAUGAUAUCGUUCUUUCUGCUAUAUAUUAACUUCUUUCUCGAUAUCAUAUUAAUCUUU
B2: Id_ii_S2_P4E.3_K4.2_C4.2_[C-2A]_[T-1C]_H4.2_A4.1_F4.1_T4.2_[G10A]_[T11A] (ssRNA)
RNA: B1 RNA with G28A, C40A
B3: Id_ii_S2_P4E.3_K4.2_C4.2_[C-2T]_H4.2_A4.1_F4.1_T4.2 (ssRNA)
RNA: B1 RNA with G28U, C29U, A39G, C40U
B4: Id_ii_S2_P4E.3_K4.2_C4.2_[C-2A]_[T-1C]_H4.2_A4.1_F4.1_T4.2_[G10A] (ssRNA)
RNA: B1 RNA with G28A, C40U
B5: Id_ii_S2_P4E.3_K4.2_C4.2_[C-2T]_[T-1A]_H4.2_A4.1_F4.1_T4.2_[T11C] (ssRNA)
RNA: B1 RNA with G28U, C29A, A39G
B6: Id_ii_S2_P4E.3_K4.2_C4.2_[C-2G]_[T-1C]_H4.2_A4.1_F4.1_T4.2_[G10T]_[T11C] (ssRNA)
RNA: B1 RNA with A39U
B7: Id_ii_S2_P4E.3_K4.2_C4.2_[C-2T]_[T-1C]_H4.2_A4.1_F4.1_T4.2_[G10C]_[T11G] (ssRNA)
RNA: B1 RNA with G28U, A39C, C40G
B8: Id_ii_S2_P4E.3_K4.2_C4.2_[C-2T]_H4.2_A4.1_F4.1_T4.2_[G10T]_[T11G] (ssRNA)
RNA: B1 RNA with G28U, C29U, A39U, C40G
B9: Id_ii_S2_P4E.3_K4.2_C4.2_[C-2T]_H4.2_A4.1_F4.1_T4.2_[T11C] (ssRNA)
RNA: B1 RNA with G28U, C29U, A39G
B10: Id_ii_S2_P4E.3_K4.2_C4.2_[C-2T]_H4.2_A4.1_F4.1_T4.2_[G10T]_[T11C] (ssRNA)
RNA: B1 RNA with G28U, C29U, A39U
B11: Id_ii_S2_P4E.3_K4.2_C4.2_[C-2T]_[T-1A]_H4.2_A4.1_F4.1_T4.2_[G10T] (ssRNA)
RNA: B1 RNA with G28U, C29A, A39U, C40U
B12: Id_ii_S2_P4E.3_K4.2_C4.2_[C-2T]_H4.2_A4.1_F4.1_T4.2_[G10A]_[T11A] (ssRNA)
RNA: B1 RNA with G28U, C29U, C40A
B13: Id_ii_S2_P4E.3_K4.2_C4.2_[C-2T]_H4.2_A4.1_F4.1_T4.2_[G10C]_[T11C] (ssRNA)
RNA: B1 RNA with G28U, C29U, A39C
B14: Id_ii_S2_P4E.3_K4.2_C4.2_[C-2T]_[T-1C]_H4.2_A4.1_F4.1_T4.2_[G10C] (ssRNA)
RNA: B1 RNA with G28U, A39C, C40U
B15: Id_ii_S2_P4E.3_K4.2_C4.2_[C-2G]_H4.2_A4.1_F4.1_T4.2_[G10T]_[T11A] (ssRNA)
RNA: B1 RNA with C29U, A39U, C40A
B16: Id_ii_S2_P4E.3_K4.2_C4.2_[C-2G]_H4.2_A4.1_F4.1_T4.2_[G10T] (ssRNA)
RNA: B1 RNA with C29U, A39U, C40U
B17: Id_ii_S2_P4E.3_K4.2_C4.2_[C-2A]_[T-1C]_H4.2_A4.1_F4.1_T4.2_[G10T] (ssRNA)
RNA: B1 RNA with G28A, A39U, C40U
B18: Id_ii_S2_P4E.3_K4.2_C4.2_[C-2G]_H4.2_A4.1_F4.1_T4.2_[G10A]_[T11A] (ssRNA)
RNA: B1 RNA with C29U, C40A
B19: Id_ii_S2_P4E.3_K4.2_C4.2_[C-2T]_[T-1C]_H4.2_A4.1_F4.1_T4.2_[G10A]_[T11C] (ssRNA)
RNA: B1 RNA with G28U
B20: Id_ii_S2_P4E.3_K4.2_C4.2_[C-2T]_[T-1C]_H4.2_A4.1_F4.1_T4.2_[G10T]_[T11A] (ssRNA)
RNA: B1 RNA with G28U, A39U, C40A
B21: Id_ii_S2_P4E.3_K4.2_C4.2_[C-2A]_[T-1C]_H4.2_A4.1_F4.1_T4.2_[G10C] (ssRNA)
RNA: B1 RNA with G28A, A39C, C40U
B22: Id_ii_S2_P4E.3_K4.2_C4.2_[C-2T]_[T-1C]_H4.2_A4.1_F4.1_T4.2_[G10A] (ssRNA)
RNA: B1 RNA with G28U, C40U
B23: Id_ii_S2_P4E.3_K4.2_C4.2_[C-2T]_[T-1A]_H4.2_A4.1_F4.1_T4.2_[G10A] (ssRNA)
RNA: B1 RNA with G28U, C29A, C40U

The binders below were run against T1, PUF4 RNA-binding domain (assay: Mg; RNA-MaP; 20 mM Na-HEPES pH 7.4, 30 mM KOAc, 0.75 mM MgCl2, 0.1% Tween-20, 5% glycerol, 0.1 mg/mL BSA, 2 mM DTT; 25 C; 0.0125-409.6 nM protein). Conditions: tags: N-His6-TEV cleaved; C-SNAP kept, Cy3B-labelled; label: tethered on chip by stalled RNA polymerase.

Point of comparison: B14, Kd 6.91 nM. Against it:
- B1 — 8.4-fold higher, 57.7 nM
- B2 — 3.1-fold higher, 21.1 nM
- B3 — within 1.5-fold, 9.27 nM
- B4 — 2.1-fold higher, 14.7 nM
- B5 — within 1.5-fold, 10.2 nM
- B6 — 3.2-fold higher, 22.4 nM
- B7 — within 1.5-fold, 8.91 nM
- B8 — within 1.5-fold, 6.27 nM
- B9 — within 1.5-fold, 5.53 nM
- B10 — within 1.5-fold, 7.36 nM
- B11 — 2.2-fold higher, 14.9 nM
- B12 — 20-fold higher, 141 nM
- B13 — within 1.5-fold, 8.62 nM
- B15 — 7.7-fold higher, 53.5 nM
- B16 — within 1.5-fold, 7.68 nM
- B17 — within 1.5-fold, 7.44 nM
- B18 — 2-fold higher, 13.7 nM
- B19 — within 1.5-fold, 8.95 nM
- B20 — 2-fold higher, 13.5 nM
- B21 — within 1.5-fold, 9.33 nM
- B22 — within 1.5-fold, 8.89 nM
- B23 — 2.5-fold higher, 17 nM
- UCUCUUUGUGUUAUUGUCUCUU (ssRNA) [Ib_S1_P5E.1_K5.1_C5.1_H5.1_[A4G]_A5.1_F5.1_[A10G]_T5.1] — 55-fold higher, 382 nM
- UCUCUUUUUAUUAUUUUCUCUU (ssRNA) [Ib_S1_P5E.1_K5.1_C5.1_H5.1_[G2T]_A5.1_F5.1_[A10T]_T5.1] — higher, > 2300 nM
- UCUCUUUGUCUUAUUGUCUCUU (ssRNA) [Ib_S1_P5E.1_K5.1_C5.1_H5.1_[A4C]_A5.1_F5.1_[A10G]_T5.1] — 120-fold higher, 840 nM
- UCUCUUUAUAUUAUUCUCUCUU (ssRNA) [Ib_S1_P5E.1_K5.1_C5.1_H5.1_[G2A]_A5.1_F5.1_[A10C]_T5.1] — 67-fold higher, 462 nM
- UCUCUUUAUAUUAUUUUCUCUU (ssRNA) [Ib_S1_P5E.1_K5.1_C5.1_H5.1_[G2A]_A5.1_F5.1_[A10T]_T5.1] — 68-fold higher, 473 nM
- UCUCUUUGCAUUAUUCUCUCUU (ssRNA) [Ib_S1_P5E.1_K5.1_C5.1_H5.1_[T3C]_A5.1_F5.1_[A10C]_T5.1] — higher, > 2300 nM
